US20080118529A1

Molecular target: recombinant human collagen XVIII fragment endostatin (Entremed, Inc) (human) (UniProt P39060)
Assay: ELISA; protein incubated with DXS500k or buffer immobilized, overlaid with tPA in 10 mM εACA

Tissue-type plasminogen activator (tPA, Actilyse, Boehringer-Ingelheim), sequence (P00750 36-562 limits assumed): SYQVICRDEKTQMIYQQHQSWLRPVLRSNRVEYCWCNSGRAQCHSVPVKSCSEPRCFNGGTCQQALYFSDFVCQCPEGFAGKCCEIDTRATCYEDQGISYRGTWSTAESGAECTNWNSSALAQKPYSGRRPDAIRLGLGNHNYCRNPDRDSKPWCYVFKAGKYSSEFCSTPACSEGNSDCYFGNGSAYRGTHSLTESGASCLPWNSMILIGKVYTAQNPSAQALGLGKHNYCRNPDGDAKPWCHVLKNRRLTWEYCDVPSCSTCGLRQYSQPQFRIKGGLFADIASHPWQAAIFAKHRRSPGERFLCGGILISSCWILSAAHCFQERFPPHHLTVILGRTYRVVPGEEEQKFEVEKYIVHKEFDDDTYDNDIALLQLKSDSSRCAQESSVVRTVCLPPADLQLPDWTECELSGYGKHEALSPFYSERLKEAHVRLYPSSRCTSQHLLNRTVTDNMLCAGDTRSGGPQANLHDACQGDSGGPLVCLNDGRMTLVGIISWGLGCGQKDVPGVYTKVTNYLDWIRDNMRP

factor of increase in tPA binding (protein exposed to DXS500k against protein in buffer only): 10.5 fold
Substance: Tissue-type plasminogen activator (tPA, Actilyse, Boehringer-Ingelheim) (from UniProt P00750 36-562) (enzyme)
